Target: low density lipoprotein (LDL) from human plasma (human) (UniProt P04114)
Assay: agarose gel, stained bands excised and counted with 125I-labeled peptide

stoichiometry (molecules of peptide per LDL) (molecules of peptide per LDL): 30
Binder: Ac-LRKLRKRLLRDWLKAFYDKVAEKLKEAF-NH2 (also: 125I-labelled where stoichiometry was determined) [Ac-hE18A-NH2 (end protected analog of hApoE[141-150]-18A)]

Reference: patent US20020128175A1
